Changes are numbered by the printed parent chain. Numbers in names are those of the source. Values belong to the binder of their own block, whether it stands above or below them.
Legend:
[1] = target: T1, IL-2Rβγ on human CD8+ T cells, NK cells and CD4+ T cells (human, UniProt P14784 27-551; P31785 23-369); experiment: cell-based or functional assay
T1 sequence (looked up) 1: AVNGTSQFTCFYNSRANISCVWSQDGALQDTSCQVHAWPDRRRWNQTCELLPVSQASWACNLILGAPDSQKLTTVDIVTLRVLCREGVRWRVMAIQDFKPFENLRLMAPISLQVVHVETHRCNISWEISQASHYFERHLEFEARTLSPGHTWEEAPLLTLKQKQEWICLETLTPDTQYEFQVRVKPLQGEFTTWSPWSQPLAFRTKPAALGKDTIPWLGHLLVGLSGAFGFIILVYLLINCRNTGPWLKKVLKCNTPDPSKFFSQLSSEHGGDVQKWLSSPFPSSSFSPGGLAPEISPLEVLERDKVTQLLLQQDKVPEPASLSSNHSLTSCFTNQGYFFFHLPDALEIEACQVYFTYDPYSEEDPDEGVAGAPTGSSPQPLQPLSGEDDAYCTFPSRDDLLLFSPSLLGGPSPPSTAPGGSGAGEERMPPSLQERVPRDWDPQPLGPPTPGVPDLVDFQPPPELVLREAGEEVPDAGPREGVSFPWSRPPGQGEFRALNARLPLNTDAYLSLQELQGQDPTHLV
T1 sequence (looked up) 2: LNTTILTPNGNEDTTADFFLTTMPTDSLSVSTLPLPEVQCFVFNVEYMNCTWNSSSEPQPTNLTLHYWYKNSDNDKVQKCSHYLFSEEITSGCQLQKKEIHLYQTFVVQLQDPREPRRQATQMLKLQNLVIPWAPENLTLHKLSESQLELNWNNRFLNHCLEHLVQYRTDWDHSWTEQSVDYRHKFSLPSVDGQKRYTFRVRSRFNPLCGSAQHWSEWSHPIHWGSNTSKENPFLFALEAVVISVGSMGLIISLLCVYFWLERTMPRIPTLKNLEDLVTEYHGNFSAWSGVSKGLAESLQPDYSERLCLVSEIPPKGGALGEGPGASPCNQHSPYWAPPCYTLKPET

[2] = target: T2, recombinant IL-2Rβγ heterodimer (human); experiment: ELISA, IL-2Rβγ-Fc heterodimer coated
T2 construct: IL-2Rβ ECD at the N-terminus of Fc hole chain, γc ECD at the N-terminus of Fc knob chain; also called recombinant IL-2Rβγ protein; dimeric IL-2Rβγ receptor
T2 chain 1: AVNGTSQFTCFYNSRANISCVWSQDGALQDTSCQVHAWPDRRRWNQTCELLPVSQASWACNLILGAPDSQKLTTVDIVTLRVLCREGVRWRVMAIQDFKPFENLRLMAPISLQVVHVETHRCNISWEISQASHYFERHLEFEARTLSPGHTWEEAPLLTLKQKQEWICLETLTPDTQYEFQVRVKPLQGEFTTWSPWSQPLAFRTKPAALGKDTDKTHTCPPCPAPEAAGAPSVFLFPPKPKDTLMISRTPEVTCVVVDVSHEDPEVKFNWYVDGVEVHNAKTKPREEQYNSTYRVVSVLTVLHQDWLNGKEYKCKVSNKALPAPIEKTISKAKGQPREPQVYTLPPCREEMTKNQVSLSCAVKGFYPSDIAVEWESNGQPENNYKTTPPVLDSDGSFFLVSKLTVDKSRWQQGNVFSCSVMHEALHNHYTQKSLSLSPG
T2 chain 2: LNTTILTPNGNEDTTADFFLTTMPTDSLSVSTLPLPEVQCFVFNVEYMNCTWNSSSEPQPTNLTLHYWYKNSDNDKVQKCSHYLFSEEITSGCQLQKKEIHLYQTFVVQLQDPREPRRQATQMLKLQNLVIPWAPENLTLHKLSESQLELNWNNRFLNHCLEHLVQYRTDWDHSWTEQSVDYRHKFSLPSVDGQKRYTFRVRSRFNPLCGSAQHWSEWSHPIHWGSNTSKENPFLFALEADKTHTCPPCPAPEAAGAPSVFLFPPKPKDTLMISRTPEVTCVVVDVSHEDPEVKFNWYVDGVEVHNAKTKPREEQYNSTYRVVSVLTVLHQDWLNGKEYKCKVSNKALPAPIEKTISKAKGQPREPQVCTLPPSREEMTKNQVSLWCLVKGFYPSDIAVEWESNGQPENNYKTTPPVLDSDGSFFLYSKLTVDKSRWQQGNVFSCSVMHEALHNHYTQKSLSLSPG
Protocol: After overnight incubation at 4° C. and blocking with 1% BSA, 3-fold serial dilutions of IL-2 Fc fusion proteins starting at 10 nM were added to each well at 100 μl/well. […] Subsequently, 100 μl/well of streptavidin-HRP (1:5000 diluted in diluent) were added to each well and incubated at room temperature for 40 min. Wells were thoroughly aspirated and washed three times with PBS/0.05% Tween-20 following each step. Finally, 100 μl TMB substrate was added to each well; the plate was developed at room temperature in the dark for 10 minutes, and 100 μl/well of stop solution (2N Sulfuric acid, Ricca Chemical) was added. Absorbance was determined at 450 nm and curves were fit using Prism software (GraphPad).

[3] = target: T3, PD1 expressed on cell surface (UniProt Q15116 25-288, limits assumed); experiment: FACS on PD-1-expressing cells
T3 construct: whole, on cells; also called PD-1-expressing cells; cell surface expressed PD-1

huPD-1-His = huPD-1-His (human, UniProt Q15116 25-167, limits assumed); experiment: ELISA, huPD-1-His coated
Protocol: A panel of IL-2 muteins was expressed as C-terminal fusions to the Fc homodimer of Fc heterodimer and screened for binding to IL-2Rα in enzyme-linked immunosorbent assay (ELISA). Briefly, IL-2Rα-ECD (SEQ ID NO: 5) was coated onto the wells of Nunc Maxisorp 96-well microplates at 0.1 μg/well. After overnight incubation at 4° C. and blocking with superblock (Thermo Fisher), 3-fold serial dilutions of IL-2 Fc fusion proteins starting at 100 nM were added to each well at 100 μI/well. Following one-hour incubation at room temperature, 100 μl/well of goat anti-human IgG Fc-HRP (1:5000 diluted in diluent) were added to each well and incubated at room temperature for 1 hour. Wells were thoroughly aspirated and washed three times with PBS/0.05% Tween-20 following each step. Finally, 100 μl TMB substrate was added to each well; the plate was developed at room temperature in the dark for 10 minutes, and 100 μl/well of stop solution (2N Sulfuric acid, Ricca Chemical) was added. Absorbance was determined at 450 nm and curves were fit using Prism software (Graph Pad).
(§1) For direct binding, the same ELISA protocol in Example 4 was followed using huPD-1-His as the coating antigen. […] Briefly, plate was coated with 0.2 μg/well of human PD1-Fc protein at 4° C. for overnight. […] Streptavidin-HRP was added as the secondary antibody.

human PD1-Fc protein = human PD1-Fc protein (human, UniProt Q15116 25-167, limits assumed); experiment: competition ELISA, human PD1-Fc coated, biotinylated Human PDL1-Fc at 0.5 µg/mL as the ligand displaced
Protocol: as §1

[4] = target: PD-1 on PD-1 positive T cells (Tregs) of human PBMC (human, UniProt Q15116 25-288); experiment: cell-based or functional assay
Sequence of PD-1 on PD-1 positive T cells (Tregs) of human PBMC (Q15116 25-288): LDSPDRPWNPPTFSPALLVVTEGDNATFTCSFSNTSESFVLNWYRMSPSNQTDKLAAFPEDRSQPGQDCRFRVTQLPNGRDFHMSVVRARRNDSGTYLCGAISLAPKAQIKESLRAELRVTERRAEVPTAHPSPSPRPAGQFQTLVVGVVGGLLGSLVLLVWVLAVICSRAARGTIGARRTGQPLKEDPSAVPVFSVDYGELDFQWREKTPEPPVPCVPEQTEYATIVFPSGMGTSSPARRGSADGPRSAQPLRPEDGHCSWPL

Sequence of huPD-1-His (Q15116 25-167 limits assumed): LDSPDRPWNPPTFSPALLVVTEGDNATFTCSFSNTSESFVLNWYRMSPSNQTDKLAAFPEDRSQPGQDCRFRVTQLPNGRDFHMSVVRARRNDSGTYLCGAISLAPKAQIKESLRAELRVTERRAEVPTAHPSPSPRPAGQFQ
Sequence of human PD1-Fc protein (Q15116 25-167 limits assumed): as above
T3 sequence (Q15116 25-288 limits assumed): as the sequence (Q15116 25-288) above

B3: P-0761 (Fc fusion)
chain 1: DKTHTCPPCPAPEAAGAPSVFLFPPKPKDTLMISRTPEVTCVVVDVSHEDPEVKFNWYVDGVEVHNAKTKPREEQYNSTYRVVSVLTVLHQDWLNGKEYKCKVSNKALPAPIEKTISKAKGQPREPQVCTLPPSREEMTKNQVSLWCLVKGFYPSDIAVEWESNGQPENNYKTTPPVLDSDGSFFLYSKLTVDKSRWQQGNVFSCSVMHEALHNHYTQKSLSLSPGGGGSGGGSAPTSSSTKKTQLQLEHLLYDLQMILNGINNYKNPKLTRMLTFKFYMPKKATELKHLQCLEEELKRLEEVLNLAQSKNFHLRPRDLISNINVIVLELKGSETTFMCEYADETATIVEFLNRWITFIQSIISTLT
chain 2: DKTHTCPPCPAPEAAGAPSVFLFPPKPKDTLMISRTPEVTCVVVDVSHEDPEVKFNWYVDGVEVHNAKTKPREEQYNSTYRVVSVLTVLHQDWLNGKEYKCKVSNKALPAPIEKTISKAKGQPREPQVYTLPPCREEMTKNQVSLSCAVKGFYPSDIAVEWESNGQPENNYKTTPPVLDSDGSFFLVSKLTVDKSRWQQGNVFSCSVMHEALHNHYTQKSLSLSPG
notes: knob chain carries the IL-2 variant; hole-Fc; monovalent; also called IL-2 L19Y/P65R/S125I monovalent Fc fusion
binding result [2]: binds

B5: P-0803 (antibody, human IgG1, kappa)
heavy 1: not shown
heavy 2: EVQLVESGGGLVKPGGSLRLSCAASGFTFSSYDMSWVRQAPGKGLEWVATISGGGSYTYYPDSVKGRFTISRDNAKNSLYLQMNSLRAEDTAVYYCASPDSSGVAYWGQGTLVTVSSASTKGPSVFPLAPSSKSTSGGTAALGCLVKDYFPEPVTVSWNSGALTSGVHTFPAVLQSSGLYSLSSVVTVPSSSLGTQTYICNVNHKPSNTKVDKKVEPKSCDKTHTCPPCPAPEAAGAPSVFLFPPKPKDTLMISRTPEVTCVVVDVSHEDPEVKFNWYVDGVEVHNAKTKPREEQYNSTYRVVSVLTVLHQDWLNGKEYKCKVSNKALPAPIEKTISKAKGQPREPQVYTLPPCREEMTKNQVSLSCAVKGFYPSDIAVEWESNGQPENNYKTTPPVLDSDGSFFLVSKLTVDKSRWQQGNVFSCSVMHEALHNHYTQKSLSLSPG
light: DIVMTQSPLSLPVTPGEPASITCKASQDVETVVAWYLQKPGQSPRLLIYWASTRHTGVPDRFSGSGSGTDFTLKISRVEAEDVGVYYCQQYSRYPWTFGQGTKLEIKRTVAAPSVFIFPPSDEQLKSGTASVVCLLNNFYPREAKVQWKVDNALQSGNSQESVTEQDSKDSTYSLSSTLTLSKADYEKHKVYACEVTHQGLSSPVTKSFNRGEC
notes: also called IL-2 P65R/S125I human PD-1 antibody fusion, (G3S)2 linker
pSTAT5 in PD-1 positive T cells (human PBMC), potency against P-0782 [4]: > 15 fold | EC50 (huPD-1-His): 0.6 nM | IC50 (human PD1-Fc protein): 2.1 nM

Further lines, results first:

fold decrease in Ki67 expression on human CD8+ T cells (potency against P-0704) [1]: ~30 fold | fold decrease in proliferation (Ki67) of human CD8+ T cells, NK cells and CD4+ T cells (potency against P-0704) [1]: 30 fold | binding result [2]: binds
B1: P-0731 (Fc fusion)
chain 1: B3 chain 1 with Y253H
chain 2: B3 chain 2
notes: knob chain carries the IL-2 variant; hole-Fc; monovalent; also called IL-2 L19H/P65R/S125I monovalent Fc fusion

binding result [3]: no binding | binding result [2]: binds
B2: P-0759 (Fc fusion)
chain 1: B3 chain 1 with Y253Q
chain 2: B3 chain 2
notes: knob chain carries the IL-2 variant; hole-Fc; monovalent; also called IL-2 L19Q/P65R/S125I monovalent Fc fusion

EC50 (huPD-1-His): 0.6 nM | IC50 (human PD1-Fc protein): 2.1 nM
B4: P-0795 (antibody, human IgG1, kappa, V domains shown)
VH: EVQLVESGGGLVKPGGSLRLSCAASGFTFSSYDMSWVRQAPGKGLEWVATISGGGSYTYYPDSVKGRFTISRDNAKNSLYLQMNSLRAEDTAVYYCASPDSSGVAYWGQGTLVTVSS
VL: DIVMTQSPLSLPVTPGEPASITCKASQDVETVVAWYLQKPGQSPRLLIYWASTRHTGVPDRFSGSGSGTDFTLKISRVEAEDVGVYYCQQYSRYPWTFGQGTKLEIKR
notes: full heavy and light chains; also called human PD-1 antagonist antibody; hPD1 antibody

Source: patent publication US20220235109A1 (CUGENE, published 2022)
